Test results taken from patent US20170137511A1 (CALYPSO BIOTECH, published 2017).

Molecular target: T1, human IL-15 (preparation not stated) (human, UniProt P40933 49-162, limits assumed)
T1 construct: also called recombinant IL-15; recombinant human IL-15
Test: ELISA screen of hybridoma supernatants

T1 sequence (P40933 49-162 limits assumed): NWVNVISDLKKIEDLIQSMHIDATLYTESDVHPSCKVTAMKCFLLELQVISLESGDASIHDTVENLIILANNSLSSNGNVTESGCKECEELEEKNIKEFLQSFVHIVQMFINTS

binding result: binds
B1: mouse anti-IL-15 monoclonal antibody B-E29 (antibody, V domains shown)
VH: EVRLMASGGGLVKPGGSLKLSCAASEFTFSNYAMSWVRQTPEKRLEWVATISRGGDYTYYPDSVKGRFTISRDNAKNTLYLQMSSLRSEDTALYYCARRVSMITGGWAMDYWGQGTSVTVSS
VL: DVLMTQTPLSLPVSLGDQASISCRSSQSIVDITGNTYLEWYLQKPGQSPKLLIYKVFNRFSGVPDRFSGSGSGTDFTLKISRVEAEDLGLYYCFQDSFVPYTFGGGTKLEIK
notes: Mouse IgG1 (heavy chain) kappa (light chain); also called mouse B-E29; comparative antibody 1
